Results from paper PMC3229559.

Target: PKC-α (UniProt P20444)
Test: biotin-peptide pull-down from heart extract
Details: reference: non-phosphorylated peptide; sites S179

- binding against the reference: weaker
Substance: syndecan-4 cytoplasmic part, 171-198 (from UniProt O35988) pS179 peptide
